Results: patent publication US20210070872A1 (AGENUS, published 2021)

T1: biotinylated GITR (human, UniProt Q9Y5U5 26-161, limits assumed, biotinylated (sites not given))
T1 construct: also called GITR-bio; Biotin-GITR
T1 sequence: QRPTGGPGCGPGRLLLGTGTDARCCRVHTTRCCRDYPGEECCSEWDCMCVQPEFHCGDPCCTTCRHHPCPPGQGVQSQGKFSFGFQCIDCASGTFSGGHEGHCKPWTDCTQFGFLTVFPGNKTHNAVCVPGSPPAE


Target: T1, biotinylated GITR
Assay: BLI (Octet), biotin-GITR on streptavidin tips, antibody supernatant
Protocol: Several hundred germlined antibodies were selected based on binding kinetics as determined by Octet measurements (Octet RED 96 system; ForteBio™ Inc., Menlo Park, Calif.). The experimental procedure was configured according to the instruction manual of the instrument. Biotin-GITR was bound to Streptavidin biosensor (SA) and PBS (pH 7.4) was used as a blank control. Briefly, the interaction analyses were conducted at 30° C. in running buffer (PBS, 0.05% Tween, pH7.4). Sensor tips were pre-wet for 10 minutes in running buffer immediately prior to use, and the micro plates used in the Octet were filled with 200 μl of sample or buffer per well and agitated at 800 rpm. For the experiments, commercially available precoated SA tips were used. Biotinylated GITR was loaded onto the ForteBio SA fibers in PBS pH7.4 for 10 minutes and washed for 4 minutes. For the association phase, the ligand-coated SA tips were immersed for 5 minutes in cell culture supernatant that was diluted 1:10 in running buffer prior to the measurement. Dissociation of the antibody-antigen complex was measured in wells containing the Octet buffer alone for 5 minutes. After each run, the tips were regenerated with Glycine (10 mM, pH 2.0). Affinity, Kₒₙ and Koff were determined with Octet evaluation software v6.3 using a 1:1 binding model with local full fitting.

Row | Binder | Kd [nM] | koff [s⁻¹] | kon [M⁻¹ s⁻¹]
1 | germline variant antibody 91 (H1917F03 / K1917F03) (antibody, V domains shown, IGHG1/IGKC expression vectors; measured from CHO culture supernatant; also called Antibody ID 91) VH: QVQLVQSGTEVKKPGASVKVSCKGSGYTFTEYAMHWVRQAPGQGMEWMGLIRTYSGGVSYNQKFQERATMTVDTSISTAYMELSRLRSDDTAVYYCAKSGTVRGFAYWGQGTLVTVSS VL: DIVMTQSPDSLAVSLGERATINCKSSQSLLNSGNQKNYLSWYQQKPGQPPKLLIYWASTRESGVPDRFSGSGSGTDFTLTISSVQAEDVAVYHCQNEYSFPYTFGQGTKLEIK | 3.07 | 0.00159 | 520000
2 | germline variant antibody 49 (H1916E11 / K1916E11) (antibody, V domains shown, IGHG1/IGKC expression vectors; measured from CHO culture supernatant; also called Antibody ID 49) VH: QVQLVQSGTEVKKPGASVKVSCKGSGYTFTGYAMYWVRQAPGQGLEWMGVIRTYSGDVTYNQKFRERATMTVDTSISTAYMELSRLRSDDTAVYYCAKSGTVRGFAYWGQGTLVTVSS VL: DIVMTQSPDSLAVSLGERATINCKSSQSLLNSGNQKNYLTWYHQKPGQPPKLLIYWASTRESGVPDRFSGSGSGTDFTLTISSVQAEDVAVYHCQNDYSFPYTFGQGTKLEIK | 2.09 | 0.000707 | 338000
3 | germline variant antibody 70 (H1917B04 / K1917B04) (antibody, V domains shown, IGHG1/IGKC expression vectors; measured from CHO culture supernatant; also called Antibody ID 70) VH: QVQLVQSGTEVKKPGASVKVSCKASGYTFTGYAMYWVRQAPGQGMEWIGVIRTYSGDVTYNQKFKDRATMTVDTSISTAYMELSRLRSDDTAVYYCAKSGTVRGFAYWGQGTLVTVSS VL: DIVMTQSPDSLAVSLGERATINCKSSQSLLNSGNQKNYLSWYQQKPGQPPKLLIYWASTRESGVPDRFSGSGSGTDFTLTISSLQAEDVAVYHCQNDYSFPYTFGQGTKLEIK | 2.01 | 0.000879 | 437000
4 | germline variant antibody 18 (H1916B09 / K1916B09) (antibody, V domains shown, IGHG1/IGKC expression vectors; measured from CHO culture supernatant; also called Antibody ID 18) VH: QVQLVQSGTEVKKPGASVKVSCKASGYTFTGYAMYWVRQAPGQGMEWIGLIRTFSGEVTYNQKFRGRVTMTVDTSISTAYMELSRLRSDDTAVYYCAKSGTVRGFAYWGQGTLVTVSS VL: DIVMTQSPDSLAVSLGERATINCKSSQSLLNSSNQKNYLTWYHQKPGQPPKMLIYWASTRESGVPDRFTGSGSGTDFTLTISSVQAEDVAVYYCQNDYSYPYTFGQGTKLEIK | 3.77 | 0.000824 | 219000
5 | germline variant antibody 5 (H1916A06 / K1916A06) (antibody, V domains shown, IGHG1/IGKC expression vectors; measured from CHO culture supernatant; also called Antibody ID 5) VH: QVQLVQSGAEVKKPGASVKVSCKGSGYTFTEYAMHWVRQAPGQGLEWMGLIRTYSGGVTYNQKFRGRVTMTVDTSISTAYMELSRLRSDDTAVYYCAKSGTVRGFAYWGQGTLVTVSS VL: DIVMTQSPDSLAAPGERATINCKSSQSLLNSSNQKNYLTWYHQKPGQPPKLLIYWASTRESGVPDRFTGSGSGTDFTLTISSVQAEDVAVYYCQNEYSFPYTFGQGTKLEIK | 1.63 | 0.000966 | 591000
6 | germline variant antibody 102 (H1917H02 / K1917H02) (antibody, V domains shown, IGHG1/IGKC expression vectors; measured from CHO culture supernatant; also called Antibody ID 102) VH: QVQLVQSGTEVKKPGASVKVSCKASGYTFTGYAMYWVRQAPGQGLEWIGVIRTYSGGVSYNQKFRDRVTMTVDTSISTAYMELSRLRSDDTAVYYCAKSGTVRGFAYWGQGTLVTVSS VL: DIVMTQSPDSLAVSLGERATINCKSSQSLLNSSNQKNYLSWYQQKPGQPPKLLIYWASTRESGVPDRFTGSGSGTDFTLTISSVQAEDVAVYYCQNDYSYPYTFGQGTKLEIK | 1.97 | 0.000632 | 321000
7 | germline variant antibody 95 (H1917G05 / K1917G05) (antibody, V domains shown, IGHG1/IGKC expression vectors; measured from CHO culture supernatant; also called Antibody ID 95) VH: QVQLVQSGAEVKKPGASVKVSCKGSGYTFTDYAMYWVRQAPGQGLEWMGLIRTYSGGVSYNQKFRGRVTMTVDTSISTAYMELSRLRSDDTAVYYCAKSGTVRGFAYWGQGTFVTVSS VL: DIVMTQSPDSLAVSLGERATINCKSSQSLLNSGNQKNYLTWYQQKPGQPPKMLIYWASTRESGVPDRFSGSGSGTDFTLTISSVQAEDVAVYHCQNDYSFPYTFGQGTKLEIK | 2.21 | 0.000672 | 305000
8 | germline variant antibody 107 (H1917H09 / K1917H09) (antibody, V domains shown, IGHG1/IGKC expression vectors; measured from CHO culture supernatant) VH: QVQLVQSGAEVKKPGASVKVSCKGSGYTFTGYAMYWVRQAPGQGLEWMGVIRTYSGDVSYNQKFRDRVTMTVDTSISTAYMELSRLRSDDTAVYYCAKSGTVRGFAYWGQGTLVTVSS VL: DIVMTQSPDSLAVSLGERATINCKSSQSLLNSGNQKNYLSWYHQKPGQPPKLLIYWASTRESGVPDRFTGSGSGTDFTLTISSVQAEDVAVYYCQNDYSYPYTFGQGTKLEIK | 2.21 | 0.000657 | 298000

Binders with a lower Kd, results first:

Row | Kd [nM] | koff [s⁻¹] | kon [M⁻¹ s⁻¹] | Binder
9 | 1 | 0.000327 | 325000 | germline variant antibody 78 (H1917D01 / K1917D01) (antibody, V domains shown, IGHG1/IGKC expression vectors; measured from CHO culture supernatant; also called Antibody ID 78) VH: QVQLVQSGAEVKKPGASVKVSCKGSGYTFTDYAMYWVRQAPGQGLEWIGVIKTYSGGVTYNQKFRDRATMTVDTSISTAYMELSRLRGDDTAVYYCAKSGTVRGFAYWGRGTLVTVSS VL: DIVMTQSPDSLAVSLGERATINCKSSQSLLNSGNQKNYLTWYHQKPGQPPKMLIYWASTRESGVPDRFTGSGSGTDFTLTISSVQAEDVAVYHCQNDYSYPYTFGQGTKLEIK
10 | 1.43 | 0.000761 | 534000 | germline variant antibody 97 (H1917G07 / K1917G07) (antibody, V domains shown, IGHG1/IGKC expression vectors; measured from CHO culture supernatant; also called Antibody ID 97) VH: QVQLVQSGTEVKKPGASVKVSCKGSGYTFTEYAMHWVRQAPGQGMEWIGLIRTFSGGLSYNQKFRDRVTMTVDKSISTAYMELSRLRSDDTAVYYCAKSGTVRGFAYWGQGTLVTVSS VL: DIVMTQSPDSLAVSLGERATINCKSSQSLLNSGNQKNYLTWYHQKPGQPPKLLIYWASTRESGVPDRFTGSGSGTDFTLTISSVQAEDVAVYHCQNEYSFPYTFGQGTKLEIK
11 | 0.0317 | 0.000242 | 7.64e+06 | germline variant antibody 37 (H1916D07 / K1916D07) (antibody, V domains shown, IGHG1/IGKC expression vectors; measured from CHO culture supernatant; also called Antibody ID 37) VH: QVQLVQSGTEVKKPGASVKVSCKGSGYTFTEYAMYWVRQAPGQGMEWIGLIRTFSGEVTYNQKFKDRVTMTVDTSISTAYMELSRLRSDDTAVYYCAKSGTVRGFAYWGQGTLVTVSS VL: DIVMTQSPDSLAVSLGERATINCKSSQSLLNSGNQKNYLTWYQQKPGQPPKLLIYWASTRESGVPDRFTGSGSGTDFTLTISSLQAEDVAVYHCQNEYSYPYTFGQGTKLEIK
12 | 0.187 | 0.00024 | 1.29e+06 | germline variant antibody 35 (H1916D05 / K1916D05) (antibody, V domains shown, IGHG1/IGKC expression vectors; measured from CHO culture supernatant; also called Antibody ID 35) VH: QVQLVQSGAEAKKPGASVKVSCKGSGYTFTGYAMYWVRQAPGQGMEWIGVIRTFSGDVTYNQKFRGRVTMTVDTSISTAYMELSRLRSDDTAVYYCAKSGTVRGFAYWGQGTLVTVSS VL: DIVMTQSPDSLAVSLGERATINCKSSQSLLNSGNQKNYLTWYHQKPGQPPKLLIYWASTRESGVPDRFTGSGSGTDFTLTISSVQAEDVAVYYCQNDYSYPYTFGQGTKLEIK
13 | 0.377 | 0.000157 | 417000 | germline variant antibody 42 (H1916E01 / K1916E01) (antibody, V domains shown, IGHG1/IGKC expression vectors; measured from CHO culture supernatant; also called Antibody ID 42) VH: QVQLVQSGTEVKKPGASVKVSCKASGYTFTDYAMYWVRQAPGQGLEWIGVIRTFSGDLTYNQKFQDRVTMTVDTSISTAYMELSRLRSDDTAVYYCAKSGTVRGFAYWGQGTLVTVSS VL: DIVMTQSPDSLAVSLGERATINCKSSQSLLNSGNQKNYLSWYQQKPGQPPKLLIYWASTRESGVPDRFSGSGSGTDFTLTISSLQAEDVAVYYCQNDYSYPYTFGQGTKLEIK
14 | 1.01 | 0.000361 | 357000 | germline variant antibody 92 (H1917F05 / K1917F05) (antibody, V domains shown, IGHG1/IGKC expression vectors; measured from CHO culture supernatant; also called Antibody ID 92) VH: QVQLVQSGAEVKKPGASVKVSCKGSGYTFTEYAMYWVRQAPGQGLEWMGLIRTFSGGVTYNQKFQGRATMTVDTSISTAYMELSRLQSDDTAVYYCAKSGTVRGFAYWGQGTLVTVSS VL: DIVMTQSPDSLAVSLGERATINCKSSQSLLNSGNQKNYLTWYHQKPGQPPKMLIYWASTRESGVPDRFSGSGSGTNFTLTISSVQAEDVAVYHCQNDYSYPYTFGQGTKLEIK
15 | 1.38 | 0.000486 | 351000 | germline variant antibody 105 (H1917H07 / K1917H07) (antibody, V domains shown, IGHG1/IGKC expression vectors; measured from CHO culture supernatant) VH: QVQLVQSGAEVKKPGASVKVSCKGSGYTFTEYAMYWVRQAPGQGLEWMGLIRTFSGGVSYNQKFKGRVTMTVDTSISTAYMELSRLRSDDTAVYYCAKSGTVRGFAYWGQGTLVTVSS VL: DIVMTQSPDSLAVSLGERATINCKSSQSLLNSGNQKNYLSWYQQKPGQPPKLLIYWASTRESGVPDRFSGSGSGTDFTLTISSVQAEDVAVYYCQNDYSYPYTFGQGTKLEIK
16 | 0.354 | 0.000332 | 936000 | germline variant antibody 101 (H1917H01 / K1917H01) (antibody, V domains shown, IGHG1/IGKC expression vectors; measured from CHO culture supernatant) VH: QVQLVQSGAEVKKPGASVKVSCKASGYTFTDYAMHWVRQAPGQGLEWMGLIRTFSGGVSYNQKFQDRVTMTVDKSISTAYMELSRLRSDDTAVYYCAKSGTVRGFAYWGQGTLVTVSS VL: DIVMTQSPDSLAVSLGERATINCKSSQSLLNSSNQKNYLTWYHQKPGQPPKLLIYWASTRESGVPDRFSGSGSGTDFTLTISSVQAEDVAVYHCQNDYSFPYTFGQGTKLEIK
17 | 1.18 | 0.00044 | 372000 | germline variant antibody 94 (H1917G01 / K1917G01) (antibody, V domains shown, IGHG1/IGKC expression vectors; measured from CHO culture supernatant; also called Antibody ID 94) VH: QVQLVQSGTEVKKPGASVKVSCKGSGYTFTGYAMYWVRQAPGQGLEWIGVIRTFSGGVTYNQKFRDRVTMTVDKSISTAYMELSRLRSDDTAVYYCAKSGTVRGFAYWGQGTFVTVSS VL: DIVMTQSPDSLAVSLGERATINCKSSQSLLNSGNQKNYLTWYQQKPGQPPKLLIYWASTRESGVPDRFTGSGSGTDFTLTISSVQAEDVAVYHCQNDYSYPYTFGQGTKLEIK
18 | 1.09 | 0.000373 | 344000 | germline variant antibody 96 (H1917G06 / K1917G06) (antibody, V domains shown, IGHG1/IGKC expression vectors; measured from CHO culture supernatant; also called Antibody ID 96) VH: QVQLVQSGAEVKKPGASVKVSCKGSGYTFTEYAMYWVRQAPGQGMEWMGVIRTYSGGLTYNQKFRDRVTMTVDTSISTAYMELSRLRSDDTAVYYCAKSGTVRGFAYWGQGTLVTVSS VL: DIVMTQSPDSLAVSLGERATINCKSSQSLLNSSNQKNYLSWYHQKPGQPPKLLIYWASTRESGVPDRFSGSGSGTDFTLTISSLQAEDVAVYHCQNDYSYPYTFGQGTKLEIK
